Laboratory results from PMC7866087, “Evaluation of Computationally Designed Peptides against TWEAK, a Cytokine of the Tumour Necrosis Factor Ligand Family” (International Journal of Molecular Sciences, 2021).

Assays:
[1] = tested on: 435-Br1 cells, TNFR2F12A gene expression; test: Fn14 gene expression with TWEAK, 435-Br1 (RT-PCR); assay type: cell-based, human; settings: for Normalized level of expression of Fn14 gene: 435-Br1, TWEAK 25 ng/ml
Description: (§1) Figure 1 Characterization TWEAK-dependent/not dependent cells. (A) Representative images of Fn14 expression (pink) in BRV5, 435-P and HT29 cells labelled by immunofluorescence. The protein has similar expression in BRV5 and the positive control HT29 cells, and less expressed in 435-P. DAPI (blue) was used for nucleus identification. (B) RT-PCR analysis to quantify Fn14 gene expression of cells cultured in the presence (dark green) or absence (light green) of TWEAK (25 ng/mL) at 48 h. Up-regulation of Fn14 is observed only in HT29 and BRV5 cells. Bars and error bars represent the average and standard deviation as calculated from three replicates respectively. P values represented as: * - significant (Pvalue: 0.01 to 0.05) and **- very-significant (Pvalue: 0.001 to 0.01).
(§2) Since the transcriptional activation of Fn14 expression can be induced in cancer cells by the TWEAK-Fn14 interaction, either in a paracrine or autocrine manner, we investigated whether TWEAK transactivates Fn14 (TNFR2F12A) in BRV5 brain metastatic cells. We primed cells with TWEAK and analysed TNFR2F12A gene expression including in the analysis 435-Br1 cells, the first generation of brain metastatic cells BRV5.
(§3) Three different cell lines were used in this study: BRV5, MDA-MB 435 (435-P), and HT29. The BRV5 is a highly metastatic brain cell line, obtained in one of our laboratories by primary culture from a brain of a nude mouse inoculated with human 435-Br1 brain metastatic cells, as previously described and used as a model to test the peptides in cell cultures. […] The triple negative 435-P cell line is a useful human breast cancer model that expresses both epithelial and melanocytic markers, and was included as the parental cell from which 435-Br1 metastatic variant was initially originated (both cell lines kindly provided by Dr Fabra at IDIBELL Institute, Hospitalet de Llobregat, Spain). Finally, HT29 human colon carcinoma cells obtained from the European Type Culture Collection (ECACC 91072201) were used as a positive control of TWEAK dependent Fn14 over-expressing cells to evaluate TWEAK-Fn14 axis of brain metastatic variants.

[2] = tested on: BRV5 cells, Fn14 gene expression; test: Fn14 gene expression with TWEAK, BRV5 (RT-PCR); assay type: cell-based, human; settings: for Normalized level of expression of Fn14 gene: BRV5, TWEAK 25 ng/ml
Description: as §1, §2, §3

B1: tumour necrosis factor-like weak inducer of apoptosis (protein, UniProt O43508 94-249, looked up)
Tumor necrosis factor ligand …: SAPKGRKTRARRAIAAHYEVHPRPGQDGAQAGVDGTVSGWEEARINSSSPLRYNRQIGEFIVTRAGLYYLYCQVHFDEGKAVYLKLDLLVDGVLALRCLEEFSATAASSLGPQLRLCQVSGLLALRPGSSLRIRTLPWAHLKAAPFLTYFGLFQVH
Normalized level of expression of Fn14 gene ([1]; technical replicate 1): 0.1600 | Normalized level of expression of Fn14 gene ([1]; technical replicate 2): 0.1676 | Normalized level of expression of Fn14 gene ([1]; technical replicate 3): 0.1719 | TNFR2F12A gene expression ([1]; TWEAK 25 ng/mL, 48 h, 435-Br1): no differences were found | Normalized level of expression of Fn14 gene ([2]; technical replicate 1): 0.1340 | Normalized level of expression of Fn14 gene ([2]; technical replicate 2): 0.1202 | Normalized level of expression of Fn14 gene ([2]; technical replicate 3): 0.1441 | Fn14 transcriptional expression ([2]; TWEAK 25 ng/mL, 48 h, BRV5): significantly activated in BRV5 cells (p = 0.0031)
